We go through two molecules from article PMC3342813 (2011).

For one series, the target named is T1, BT2127 (Bacteroides thetaiotaomicron, UniProt Q8A5V9).
T1 sequence (Q8A5V9 1-224): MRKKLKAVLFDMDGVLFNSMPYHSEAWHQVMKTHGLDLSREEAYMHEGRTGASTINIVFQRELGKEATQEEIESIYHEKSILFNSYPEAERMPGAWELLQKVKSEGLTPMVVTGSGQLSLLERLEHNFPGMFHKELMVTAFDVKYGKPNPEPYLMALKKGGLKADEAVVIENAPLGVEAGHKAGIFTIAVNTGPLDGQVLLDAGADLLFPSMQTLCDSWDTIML
The series can be described thus: steady-state competitive inhibition of pyrophosphate hydrolysis. Type of series: biochemical.

Substrate in series [1]: O=P(O)(O)OCC(O)CO
Briefly: purified protein. As to conditions: Mg2+; pH 7.5; 25.0 °C.

Substrate in series [2]: O=c1ccn([C@@H]2O[C@H](COP(=O)(O)O)[C@@H](O)[C@H]2O)c(=O)[nH]1
Briefly: purified protein. The settings on record: Mg2+; pH 7.5; 25.0 °C.

Substrate in series [3]: O=[N+]([O-])c1ccc(OP(=O)(O)O)cc1
Briefly: purified protein. The settings on record: Mg2+; pH 7.5; 25.0 °C.

Turning to `O=P(O)(O)NP(=O)(O)O` [imidodiphosphate], the Ki (as a rule, the dissociation constant of the complex between target and ligand, obtained from inhibition or displacement) on BT2127 is 13 ± 1 µM.

B1: BT2127 (Bacteroides thetaiotaomicron VPI-5482) (protein)
chain: MRKKLKAVLFDMDGVLFNSMPYHSEAWHQVMKTHGLDLSREEAYMHEGRTGASTINIVFQRELGKEATQEEIESIYHEKSILFNSYPEAERMPGAWELLQKVKSEGLTPMVVTGSGQLSLLERLEHNFPGMFHKELMVTAFDVKYGKPNPEPYLMALKKGGLKADEAVVIENAPLGVEAGHKAGIFTIAVNTGPLDGQVLLDAGADLLFPSMQTLCDSWDTIML
On to B1, for which, in the series “purified protein [1]”, the Km – broadly, the substrate concentration at which the rate is half of its maximum – worked out at 4800 ± 300 µM; the kcat (usually the number of substrate molecules converted per active site and unit of time at saturation) turned out to be 0.35 s⁻¹; the kcat/Km (usually the turnover number divided by the Michaelis constant) was found to be 70 M⁻¹ s⁻¹. Further, in the series “purified protein [2]”, the Michaelis-Menten constant (Km) was 2600 ± 400 µM, the catalytic constant (kcat) was found to be 0.15 s⁻¹ and the catalytic efficiency (kcat/Km) came to 60 M⁻¹ s⁻¹. In “purified protein [3]”, the Michaelis constant (Km) stood at 50 ± 10 µM, the turnover number (kcat) was 0.0019 s⁻¹ and the kcat/Km was 40 M⁻¹ s⁻¹.
